The record followed here is the supplement of paper PMC9942255.

The subject of the data set is Bacillus subtilis DB104 (SP-AmyQ fusion secretion). Put plainly: AmyQ secretion efficiency, weighted average sort bin (1 = best secretion, 10 = worst) (bin number (weighted average, 1-10)); higher = lower secretion efficiency. The essentials:
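Secretion score gives the read-frequency-weighted average bin number, normalised to beads per bin, with low-abundance sequences left out. A B. subtilis DB104 library expressing mature AmyQ fused to designed signal peptides, integrated at amyE, was encapsulated with fluorescein-starch at about 0.3 cells per ~65 nL alginate bead. Beads were grown about 13 h at room temperature, stained with nile red, and the occupied ones were sorted by large-particle flow cytometry into 10 equally populated bins by green/red fluorescence ratio before the amplicons from each bin were Illumina-sequenced.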

In turn, MLKKKWMVGLLAGCLAAGGFSYNVFATEN had an AmyQ secretion efficiency of 5.37.
In turn, MKKRLIGFLVLVPALIMSGITLMEANKK registered an AmyQ secretion efficiency of 7.17.
The figure for MIRSISIFITCLLITLLTMGGMIASPASAAGT is 2.35.
The same measure for MKKQIITATTAVVLGSTLFAGAVSAQSI: 1.69.
The figure for MGSSLAAGLTASAIVGTTLVVTPAEAATI is 4.99; for MKKWMAGLFLAAAVLLCLKRRRKRIQGASS it is 6.89; for MKKRKRRNFKRFIAAFLVLALMISLVPADCLAKST it is 3.04.
For MRFTKVVGFLSVLGLAASSILLLFSIVFPLTAQAEKA, the AmyQ secretion efficiency is 2.15.
The figure for MKRFILVLSFLSIIVKRRRRRTNASPM is 7.31.
The figure for MGLGKKLSVAVAASFPGVQAAEG is 7.32.
The figure for MKLRKVLTGSVLSLGLLVSASPIFATSP is 1.63; for MPYLKRVLLLLVTGLFMSLFGDTATASAQTG it is 1.23.
MKRFILVLSFLSIIVAYPIQTNASPE showed an AmyQ secretion efficiency of 2.06.
The sequence MKKKLAAGLTASAIVGTTLVVTPLEAATI had an AmyQ secretion efficiency of 3.17.
For MLKKKWMVGLLAGCLAAGGFSYNAFATEE, the AmyQ secretion efficiency came out at 3.49.
As for MKKKQVMLALTAAAGLGLTALVFFHSAPAAKAAPL, the AmyQ secretion efficiency came to 2.39.
MKNRKRKLVVSVTLFFSFLTIGPLAHAQNS: the AmyQ secretion efficiency was 1.21.
As to MTMLRKKGRWSLLLCIIPLFAFTVIASGKEV, the AmyQ secretion efficiency came to 6.17.
The figure for MKRLKRRKLIGIMLLTFAPSAFAKQD is 4.68; for MKKKQVSHAIIISVMLSFVIAVFHTIHASYLTP it is 6.98; for MRMLWRSLALCGLALPCAQAAEP it is 6.75.
MKNMSCKLVVSVTLFFSFLTIGPLAPVGVSPVAHAQNS gave an AmyQ secretion efficiency of 1.75.
The figure for MKKQSMALVILGALGTSYISADSS is 5.2; for MNKPTKLFSTLALAAGMTAAAAGGAGTVHAQQP it is 2.25; for MPTKKKVMKCLAVTLVFGSMSFPTLTNSGGFKE it is 7.16.
The same measure for MKKWMAGLFLAAAVLLCLMVPQQYQGASS: 6.35; for MKTKTLFIFSAILTLSIFASTITLSAFAPNETFAQTA: 3.01; for MLKKIMNLNMMMALTLCPAIVGSLLFFTAPASAHVS: 2.77.
The figure for MKRKKLCLWFTVFSLFLVLLPGKALGAVD is 4.65; for MRMLWRSLALCGLALTLAPCWQAAEP it is 5.47; for MKKMKKSGKRFLLALTIHVGEASAVIV it is 6.51.
Take MKQKRGRKACLILFSFTITTFINTETISAFSN: the AmyQ secretion efficiency is 3.84.
MRMLWRSLALCGLALTLAPCAQGAEP showed an AmyQ secretion efficiency of 2.58.
The sequence MKVPKTMLLSTAAGLLLSLTATSVSCHYV came in with an AmyQ secretion efficiency of 5.45.
The same measure for MRKKLKWLSFLLGFIILLFLFKYQFSPNDS: 6.63; for MKKKQRAGLTASAIVGTTLVVTPAEAATI: 6.45.
The same measure for MNLRKILLSSALSLGMLVSAAPYLATSS: 5.88; for MPYLKRVLLLLVTGLFMSLFAVTATASRQTG: 1.19; for MKRRRKPYTKKLALGAALTIAPLSFASAEEN: 6.27.
The same measure for MSKKTWMVGLLAGCLAAGGFSYNAFATEN: 4.68.
With MKRFLIGAGVAAVILRKKKKAKHQTHSQEM, the AmyQ secretion efficiency came out at 6.98.
The figure for MKKGIIRFLLVSFVLFFALSTGITGFQAAPA is 5.1.
MTKKAWFLPLVCVLLISGWLAPAASCSAQTT returned an AmyQ secretion efficiency of 3.03.
In turn, MKIRKILLSSALSFGMLISAVPALARKR showed an AmyQ secretion efficiency of 5.61.
In the case of MKKQIITATTAVVLGSTLFAAASSTGAASAQSI, the AmyQ secretion efficiency was found to be 3.24.
The figure for MTMLRKIIGWILLLCIIPLFAFTVITSGKEV is 6.41; for MLKKKWMVGLLAGCLAAGGFSYNGFATEN it is 6.08.
The figure for MNFKKTVVSALSISALALEEEGVASAHEI is 7.3; for MRKVITCVMAASLTLGSLLPAGYASAKED it is 3.26; for MKRTWNVCLTALLSVLLVAGSVPFHGEAKKP it is 2.79.
The same measure for MRGKSAVLLSLIMLIAGFLDEESFSFQM: 5.97.
MKKGIIRFLLVSFVLFFALKKRITGVQAAPA returned an AmyQ secretion efficiency of 6.43.
Sequence MFKKHTISLLIIFLLASAVLAKPIEYHTV registered an AmyQ secretion efficiency of 5.13.
In turn, “MKLWMRKTLVVLFTIVTFGLVIATFTTVAVSPPAALMADKP” registered an AmyQ secretion efficiency of 4.44.
The figure for MRKKTKNRLISSVLSTVVISSLLFAPGAAGASSK is 2.22.
In the case of MLCVMMLLFSAIASFPVSASATAQAKDQ, the AmyQ secretion efficiency amounted to 5.05.
The figure for MKSKGSIMACLILFSFTITTFINTETASAFSN is 4.22.
Turning to MKKSQYFIVFICFFVLFSVHPIAAAEADS, the AmyQ secretion efficiency worked out at 3.09.
The same measure for MRKKTKNRLISSVLSTVVISSLLFPGAAGASSP: 1.67; for MKSKGSIMACLILFSFTITTFINTETISMFSN: 7.38.
MKRLLVSLRVWMVFLMNWVTVGRKTAAAAVY showed an AmyQ secretion efficiency of 5.77.
Sequence MKKRFFGPIILAFILFAGAIAIEE registered an AmyQ secretion efficiency of 6.41.
With MRKNRRGKQGTLSLGLLSFMVTPVSAASK, the AmyQ secretion efficiency was 7.32.
MTMLRKIIGWILLLCIIPLFAFTVIDSGKEV showed an AmyQ secretion efficiency of 6.22.
MLKKIALTLCPAIVGSLLFFTKPQASAHVS displayed an AmyQ secretion efficiency of 3.85.
The figure for MKKKQVMLALTAAAGLGLTALHSAPAAKAAPK is 1.55; for MTGSLLSSLAISALSLGLLVSAPTASFAAES it is 5.96; for MRKVLTMCFLGLILFVPTALADNS it is 2.17.
MLKKIALTLCPAIVGSLLFFTAGASAHVS registered an AmyQ secretion efficiency of 3.12.
The figure for MKLAKRVSALTPSTTLAITKKAKEL is 6.57; for MNKLKRLSMSKSRGYSVFIFSSHALAAQY it is 6.58.
Turning to MKRKKLLSTLLIGIMLLTFAPSAFAKQD, the AmyQ secretion efficiency was found to be 1.35.
The same measure for MKKIMSARKRRRKLTIFCFSPQASAAYD: 6.63.
The figure for MSKLVLCVSILAVILSGVALTQLS is 6.37; for MIAYFGKCRKTRTIMFLGVLFGMQQANHG it is 3.14; for MTLALRVSALTPSTTLAITAKAKEL it is 7.08.
The figure for “MKSKGSIMACLILFSFTITIILVTLIIVATFINTETISAFSN” is 6.84; for MKKRITYSLLALLAVVAFAFTRSSKAKAAEA it is 3.67.
The sequence MGMKKKLRKKRASAALGLALVGGGTWAAFN gave an AmyQ secretion efficiency of 5.51.
MAIIIAIIAAVIVIAALITFNVRNVSPG: the AmyQ secretion efficiency turned out to be 8.03.
In the case of MKRLLVSLRVWMVFLMNWVTPDRKTDAAAVY, the AmyQ secretion efficiency stood at 6.85.
MKNLTKTSLLLAGLCTAAQMVFVTHASAEES yielded an AmyQ secretion efficiency of 3.46.
The same measure for MKVPKTMLLSTAAGLLLSLTATSRSAHYV: 6.25; for MKIRKILLSSALSFGMLEEDDPALAAGT: 2.69.
For MNLRKNSFFILLSSALSLGMLVSAAPVLATSS, the AmyQ secretion efficiency worked out at 1.98.
The same measure for MKLKKRVSMFLVALTMCGGLFVTPAKAVTD: 3.07; for MRGKSAKRLSLIMLIAGFLISFSFQM: 7.38; for MAIIIAIIAAVIVIAALITFNVSNASPG: 7.09.
The same measure for MKKVLMAFIICLSLILSVLAAPPSGSKAESV: 3.67; for MRKKLKWLSFLLGFIILLFLFFFIALIVLAKYQFSNNDS: 6.41; for MKNGGCKLVVSVTLFFSFLTIGPLAHAQNS: 3.26.
For MKKRFFGPIILAFILFAGVIAIPS, the AmyQ secretion efficiency is 6.86.
The same measure for MTMKLKWLSFLLGFIILLFLFKYQFSNNDS: 7.21; for MGKWYYVVLVLSIAGIGGFSVHAASS: 7.3; for MKRRKKKVLTGSVLSLGLLVSASPAFATSP: 1.34.
On to MKRIRIPMTLALGAALTIAPLDKASAEEN, for which the AmyQ secretion efficiency is 3.1.
The same measure for MKKGIIRFLLVSFVLFFALSTGITGVQAARK: 2.85; for MNFKKTVVSALSISALALEPSGVASAHEI: 2.95.
Sequence MKVLLSALLLLLFARKKKKRASGKKL showed an AmyQ secretion efficiency of 6.15.
The sequence MKKSMLAAAVLLSLGLVFGFSYGAGHVAEAKTK yielded an AmyQ secretion efficiency of 2.84.
Sequence MKRIRIPMTLALGAALTIAPLSFASLEEN yielded an AmyQ secretion efficiency of 6.43.
The same measure for MIKGIIRFLLVSFVLFFALSTGITGVQAAPA: 2.2; for MGLGKKLSVAVAASFMSLSPGVQAAEG: 1.73.
As for MKKKQVMLALTAAAGLGLTALHSAPADKAAPL, the AmyQ secretion efficiency came to 5.48.
The same measure for MKTLRTLCVLMILSGVIFFGLKYDAKDI: 5.31.
For MLCVMMLLFMAIASFPVSAQAKDQ, the AmyQ secretion efficiency was 5.48.
Consider MRSYIKVLTMCFLGLILFVPTALPDNS, for which the AmyQ secretion efficiency came out at 7.02.
The same measure for MKKAFILSAAAAVGLFTFGGVQQASEKEL: 6.66.
